# Laboratory results taken from patent publication US20230039279.
# What was measured:
# [1] = tested on: MMP-9 sensitive peptide (GPRSLSG-RRCG) linked ibuprofen
# [2] = tested on: MMP-9 peptide substrate M2, GRCR-GPRSLSG-RCRG
# [3] = tested on: cleavable peptide (1) GCRR-KGPRSLSGK-RRCG
# [4] = tested on: ibu-GPQGIWGQ-DRCG
# [5] = tested on: non-cleavable scrambled peptide GCRR-KSSRGGPLK-RRCG
# [6] = tested on: peptide (2)
# [7] = tested on: peptide (3), crosslinker based on substrate AVRWLLTA
# [8] = tested on: peptide (4)
# [9] = tested on: peptide (5)
# [10] = tested on: peptide (6)
# [11] = tested on: peptide (7)
# Sequence of matrix-metalloprotease-9 (MMP-9), 83 kDa, Merck (chain, as listed by the source): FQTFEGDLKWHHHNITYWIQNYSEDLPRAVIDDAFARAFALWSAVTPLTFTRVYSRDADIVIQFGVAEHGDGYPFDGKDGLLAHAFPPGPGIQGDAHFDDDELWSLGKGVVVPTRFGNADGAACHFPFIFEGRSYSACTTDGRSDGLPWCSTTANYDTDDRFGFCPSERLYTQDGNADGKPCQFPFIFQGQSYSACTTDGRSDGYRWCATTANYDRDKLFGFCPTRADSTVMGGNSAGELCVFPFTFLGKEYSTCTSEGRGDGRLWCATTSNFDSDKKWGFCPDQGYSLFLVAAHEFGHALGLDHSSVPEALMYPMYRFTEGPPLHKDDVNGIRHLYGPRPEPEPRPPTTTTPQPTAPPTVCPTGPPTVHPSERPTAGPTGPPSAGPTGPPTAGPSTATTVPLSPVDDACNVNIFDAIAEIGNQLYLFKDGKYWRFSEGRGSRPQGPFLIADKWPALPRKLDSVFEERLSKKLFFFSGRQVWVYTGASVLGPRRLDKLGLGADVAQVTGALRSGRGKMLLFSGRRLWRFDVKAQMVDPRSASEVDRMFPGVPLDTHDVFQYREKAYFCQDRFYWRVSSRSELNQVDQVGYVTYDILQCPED
Substance,specificity of protease-triggered ibuprofen liberation (FIG. 10B) [1],degradation of H2-M2 combinational hydrogel and release of PLGA particles over 24 hours [2],"ultimate cumulative drug release at 48 hours from the dual-responsive conjugate hydrogel, MMP-9 alone (2 µg/ml) [1]",cleavability of hybrid hydrogel (release of PLGA particles into the medium after 20 h with 3 µg/ml MMP-9) [3],cumulative drug release from GEL-iP after 4 hours with 3 µg/ml MMP-9 [3],LC-MS detection of the liberated fragment in the supernatant after 2 days of hydrogel exposure to MMP9 solution [4],cumulative drug release from scrGEL-iP after 4 hours with 3 µg/ml MMP-9 [5],cleavability of hybrid hydrogel (release of PLGA particles into the medium after 20 h with 3 µg/ml MMP-9) [6],cleavability of hybrid hydrogel (release of PLGA particles into the medium after 20 h with 3 µg/ml MMP-9) [7],cleavability of hybrid hydrogel (release of PLGA particles into the medium after 20 h with 3 µg/ml MMP-9) [8],cleavability of hybrid hydrogel (release of PLGA particles into the medium after 20 h with 3 µg/ml MMP-9) [9],cleavability of hybrid hydrogel (release of PLGA particles into the medium after 20 h with 3 µg/ml MMP-9) [10],cleavability of hybrid hydrogel (release of PLGA particles into the medium after 20 h with 3 µg/ml MMP-9) [11]
cathepsin B,"the peptide sequence, GPRSLSGRRCG (SEQ ID NO: 20), as a spacer illustrated a good specificity toward MMP-9 compared to cathepsin B and human neutrophil elastase (HNE)",,,,,,,,,,,,
"matrix-metalloprotease-9 (MMP-9), 83 kDa, Merck","the peptide sequence, GPRSLSGRRCG (SEQ ID NO: 20), as a spacer illustrated a good specificity toward MMP-9 compared to cathepsin B and human neutrophil elastase (HNE)",H2 and M2 peptide substrates were preferentially cleaved by HNE and MMP-9 proteases respectively,the ultimate cumulative release achieved 71%,"hybrid hydrogels crosslinked with peptides (1), (4), (5) and (7) could be digested by MMP-9",exposing GEL-iP to MMP-9 for 4 hours significantly boosted the cumulative drug release to 100% compared to only 25% in the absence of MMP-9,"LC-MS analysis confirmed the presence of the liberated ibuprofen bearing fragment (ibu-GPQG, LC peak at elution time of 14.6 min, MS peak at m/z=546.20)",only 40% was released from the hybrid hydrogel crosslinked by the scrambled peptide (scrGEL-iP) at the same condition,"hydrogels formed with peptides (2), (3), and (6) were not cleaved upon exposure to MMP-9","hydrogels formed with peptides (2), (3), and (6) were not cleaved upon exposure to MMP-9","hybrid hydrogels crosslinked with peptides (1), (4), (5) and (7) could be digested by MMP-9","hybrid hydrogels crosslinked with peptides (1), (4), (5) and (7) could be digested by MMP-9","hydrogels formed with peptides (2), (3), and (6) were not cleaved upon exposure to MMP-9","hybrid hydrogels crosslinked with peptides (1), (4), (5) and (7) could be digested by MMP-9"
